Source: patent US20140004122A1, “METHODS FOR TREATING OR PREVENTING CHOLESTEROL RELATED DISORDERS” (AMGEN INC., priority 2011, published 2014)
Read-outs that look alike come from different tables or passages of the source.

Assays:
[1] = system: patients from four studies described in Examples 22-25; experiment: Aggregate data of the studies of Examples 22-25; assay type: in vivo, human
[2] = system: subjects with heterozygous familial hypercholesterolemia (HeFH); experiment: 12 week study in heterozygous familial hypercholesterolemia (Example 22); assay type: in vivo, human; settings: preliminary
Method: This study is a double-blind, randomized, stratified, placebo-controlled clinical trial evaluating the safety, tolerability, and efficacy of monocloncal antibody 21B12 in subjects having a diagnosis of HeFH. A total enrollment of 150 subjects is planned. […] Randomization will be stratified by screening LDL-C level (<130 mg/dL [3.4 mmol/L] vs≧130 mg/dL) and ezetimibe use at baseline (yes vs no). Randomization should occur within 5-10 days of the screening LDL-C evaluation used to determine eligibility. Monoclonal antibody, 21B12, and placebo will be blinded. Study visits are at weeks 2, 4, 8, and 12. […] The end-of-study (EOS) visit and the last evaluation of lipids is at week 12.
Males and females, ≧18 to ≦75 years of age, and with a diagnosis of heterozygous familial hypercholesterolemia by the diagnostic criteria of the Simon Broome Register Group (SBRG), are eligible for this study. For enrollment, subjects must be on an approved statin, with stable dose(s) for all allowed (eg, ezetimibe, bile-acid sequestering resin, stanols, or regulatory-approved and marketed niacin (eg, Niaspan or Niacor)) lipid-regulating drugs for at least 4 weeks before LDL-C screening and, in the opinion of the investigator, not requiring uptitration. Fasting LDL-C must be ≧100 mg/dL (2.6 mmol/L) and fasting triglycerides ≦400 mg/dL (4.5 mmol/L) by central laboratory at screening.

human PCSK9 [3] = molecular target: T1, human PCSK9 (Homo sapiens, UniProt Q8NBP7); experiment: BIAcore affinity analysis; assay type: binding; settings: human PCSK9, pH 6.0, n=1
T1 sequence (Q8NBP7 153-692): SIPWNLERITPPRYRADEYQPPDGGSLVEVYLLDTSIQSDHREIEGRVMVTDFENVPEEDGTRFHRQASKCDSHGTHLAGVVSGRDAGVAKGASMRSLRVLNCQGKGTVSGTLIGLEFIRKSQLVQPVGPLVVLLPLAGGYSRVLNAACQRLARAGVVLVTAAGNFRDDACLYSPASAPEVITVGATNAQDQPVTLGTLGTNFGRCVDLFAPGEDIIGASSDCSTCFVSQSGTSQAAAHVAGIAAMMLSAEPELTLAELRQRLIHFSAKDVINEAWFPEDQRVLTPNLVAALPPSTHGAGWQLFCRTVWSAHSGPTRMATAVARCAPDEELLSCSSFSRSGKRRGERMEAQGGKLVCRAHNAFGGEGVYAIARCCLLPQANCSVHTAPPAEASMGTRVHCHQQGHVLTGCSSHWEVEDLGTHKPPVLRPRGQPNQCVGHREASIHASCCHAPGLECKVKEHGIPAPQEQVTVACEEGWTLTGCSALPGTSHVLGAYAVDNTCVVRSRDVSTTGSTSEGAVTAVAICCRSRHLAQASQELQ

human PCSK9 [4] = molecular target: T1, human PCSK9; experiment: BIAcore affinity analysis; assay type: binding; settings: pH 7.4; read-out: KD hPCSK9
Method: Briefly, the surface plasmon resonance experiments were performed using Biacore 2000 optical biosensors (Biacore, GE Healthcare, Piscataway, N.J.). […] The concentration of PCSK9 protein was varied at 2 fold intervals (the analyte) and was injected over the immobilized antibody surface (at a flow rate of 100 μl/min for 1.5 minutes). Fresh HBS-P buffer (pH 7.4, 0.01 M Hepes, 0.15 M NaCl, 0.005% surfactant P-20, Biacore) supplemented with 0.01% BSA was used as binding buffer.
The binding signal obtained was proportional to the free PCSK9 in solution.
Antibody binding kinetic parameters including ka (association rate constant), kd (dissociation rate constant), and KD (dissociation equilibrium constant) were determined using the BIA evaluation 3.1 computer program (BIAcore, Inc. Piscataway, N.J.).

[5] = Osmolality of 21B12 formulations; assay type: physicochemical
Excerpt: In certain embodiments, the pharmaceutical formulation is isotonic with an osmolality ranging from between about 250 to about 350 miliosmol/kg, e.g., about 250 mOsm/kg, about 260 mOsm/kg, about 270 mOsm/kg, about 280 mOsm/kg, about 290 mOsm/kg, about 300 mOsm/kg, about 310 mOsm/kg, about 320 mOsm/kg, about 330 mOsm/kg, about 340 mOsm/kg, or about 350 mOsm/kg, and including all values in between. As used herein, “osmolality” is the measure of the ratio of solutes to volume fluid. In other words, it is the number of molecules and ions (or molecules) per kilogram of a solution. Osmolality may be measured on an analytical instrument called an osmometer, such as Advanced Instruments 2020 Multi-sample Osmometer, Norwood, Mass. The Advanced Instrumetns 2020 Multi-sample Osmometer measures osmolality by using the Freezing Point Depression method. The higher the osmolytes in a solution, the temperature in which it will freeze drops. Osmolality may also be measured using any other methods and in any other units known in the art such as linear extrapolation.

[6] = system: human patient exhibiting a Cholesterol Related Disorder; experiment: Treatment of cholesterol related disorders (Example 16); assay type: in vivo; settings: therapeutically effective amount
Excerpt: At periodic times during the treatment, the patient is monitored to determine whether the symptoms of the disorder have subsided.

[7] = Pharmacokinetics in cynomolgus monkeys; assay type: in vivo, cynomolgus monkey; settings: 0.5 mg/kg single SC
Method: Antibody concentrations in serum were determined using an enzyme-linked immunosorbent assay (ELISA) with an assay range of 34.4 to 3000 ng/mL (34.4 ng/mL being the lower limit of quantitation [LLOQ]).
Non-compartmental analysis (NCA) was performed on the serum concentrations using the pre-determined nominal time points for each subject using Watson® LIMS, version 7.0.0.01 (Thermo Scientific, Waltham, Mass.). Data points for estimating the terminal elimination rate constants and half-lives were chosen by visual inspection of the concentration-time profile and best linear fit (typically from 360 h until the antibody concentrations dropped below the lower limit of quantitation).
NCA parameters reported include: terminal half-life (t1/2,z), the maximum serum concentration (Cmax), area under the serum concentration-time curve from time zero to infinity (AUC0-inf), and apparent serum clearance (CL/F). AUC0-inf was calculated using the linear log-linear trapezoidal method. All parameters were all reported to three significant figures, except for half-life which was reported to two significant figures.

[8] = system: human patient at risk of developing coronary heart disease; experiment: Prevention of coronary heart disease (Example 18); assay type: in vivo; settings: alone, concurrently or sequentially with a statin
Excerpt: A human patient at risk of developing coronary heart disease is identified. […] At periodic times during the treatment, the human patient is monitored to determine whether the patient's total serum cholesterol level changes.

[9] = 350 mg Q4W SC, end of the dosing interval

B1: 21B12: human anti-PCSK9 monoclonal antibody; light/heavy variable region SEQ ID NO 23/49 (antibody, listed as Homo sapiens, V domains shown)
VH: QVQLVQSGAEVKKPGASVKVSCKASGYTLTSYGISWVRQAPGQGLEWMGWVSFYNGNTNYAQKLQGRGTMTTDPSTSTAYMELRSLRSDDTAVYYCARGYGMDVWGQGTTVTVSS
VL: QSALTQPASVSGSPGQSITISCTGTSSDVGGYNSVSWYQQHPGKAPKLMIYEVSNRPSGVSNRFSGSKSGNTASLTISGLQAEDEADYYCNSYTSTSMVFGGGTKLTVL
reduction from baseline in LDL-C at week 12 ([1]; 140 mg Q2W): ~60% | reduction from baseline in LDL-C at week 12 ([1]; 420 mg Q4W): ~56% | dose dependent reduction from baseline in ApoB ([1]; p values <0.001): 36-53% | dose dependent reduction from baseline in non-HDL-C ([1]; p values <0.001): 36-53% | dose dependent reduction from baseline in total cholesterol ([1]; p values <0.001): 25-37% | LS mean percent increase from baseline in HDL-C [2, 9]: 15.39% | LS mean percent reduction from baseline in LDL-C [2, 9]: 38.46% | LS mean percent reduction from baseline in Lp(a) [2, 9]: 21.69% | LS mean percent reduction from baseline in VLDL-C [2, 9]: 17.16% | LS mean percent reduction from baseline in non-HDL cholesterol [2, 9]: 36.16% | LS mean percent reduction from baseline in total cholesterol [2, 9]: 24.82% | LS mean percent reduction from baseline in triglycerides [2, 9]: 17.24% | LS mean percent increase from baseline in HDL-C ([2]; 420 mg Q4W SC): 6.77% | LS mean percent reduction from baseline in LDL-C ([2]; 420 mg Q4W SC): 45.68% | LS mean percent reduction from baseline in Lp(a) ([2]; 420 mg Q4W SC): 28.23% | LS mean percent reduction from baseline in VLDL-C ([2]; 420 mg Q4W SC): 18.49% | LS mean percent reduction from baseline in non-HDL cholesterol ([2]; 420 mg Q4W SC): 41.81% | LS mean percent reduction from baseline in total cholesterol ([2]; 420 mg Q4W SC): 29.45% | LS mean percent reduction from baseline in triglycerides ([2]; 420 mg Q4W SC): 4.56% | Kd (human PCSK9 [3]): 0.0073 nM | Kd (human PCSK9 [4]): 0.19 nM | Osmolality (mOsmol/kg) ([5]; 21B12 73 mg/mL, 10 mM Na acetate, pH 5.2 +3% proline): 253 mOsmol/kg | Osmolality (mOsmol/kg) ([5]; 21B12 76 mg/mL, 10 mM Na acetate, pH 5.2): 53 mOsmol/kg | Osmolality (mOsmol/kg) ([5]; 21B12 116 mg/mL, 10 mM sodium acetate, pH 4.8, 50 mM methionine + 2% benzyl alcohol): 329 mOsmol/kg | Osmolality (mOsmol/kg) ([5]; 21B12 116 mg/mL, 10 mM sodium acetate, pH 4.8, 150 mM arginine): 241 mOsmol/kg | Osmolality (mOsmol/kg) ([5]; 21B12 116 mg/mL, 10 mM sodium acetate, pH 4.8, 1.5% proline + 1% benzyl alcohol): 277 mOsmol/kg | Osmolality (mOsmol/kg) ([5]; 21B12 116 mg/mL, 10 mM sodium acetate, pH 4.8, 2% proline + 1% benzyl alcohol): 313 mOsmol/kg | Osmolality (mOsmol/kg) ([5]; 21B12 116 mg/mL, 10 mM sodium acetate, pH 4.8, no excipients): 72 mOsmol/kg | Osmolality (mOsmol/kg) ([5]; 21B12 117 mg/mL, 10 mM Na acetate, pH 4.5): 59 mOsmol/kg | Osmolality (mOsmol/kg) ([5]; 21B12 122 mg/mL, 10 mM Na acetate, pH 5.2 +3% proline): 274 mOsmol/kg | Osmolality (mOsmol/kg) ([5]; 21B12 130 mg/mL, 10 mM Na acetate, pH 5): 59 mOsmol/kg | Osmolality (mOsmol/kg) ([5]; 21B12 148 mg/mL, 10 mM Na acetate, pH 5.2 +3% proline): 301 mOsmol/kg | Osmolality (mOsmol/kg) ([5]; 21B12 […], 10 mM Na acetate, pH 4): 59 mOsmol/kg | Osmolality (mOsmol/kg) ([5]; 21B12 […], 10 mM Na acetate, pH 5.2 +150 mM NaCl): 346 mOsmol/kg | Osmolality (mOsmol/kg) ([5]; 21B12 […], 10 mM Na acetate, pH 5.2 +3% proline): 252 mOsmol/kg | Osmolality (mOsmol/kg) ([5]; 21B12 […], 10 mM Na acetate, pH 5.5): 64 mOsmol/kg | Osmolality (mOsmol/kg) ([5]; 21B12 […], 10 mM Na acetate, pH 5.5 +150 mM methionine and 3% benzyl alcohol): 520 mOsmol/kg | serum cholesterol levels vs patients that are not treated [6]: reduced serum cholesterol levels | half-life [7]: ~40 h | serum cholesterol vs patients not receiving the treatment [8]: reduced serum cholesterol
